Test results published in paper PMC3596311, “PTB-Associated Splicing Factor (PSF) Is a PPARγ-Binding Protein and Growth Regulator of Colon Cancer Cells” (PLoS ONE, 2013).

Biological target: T1, PSF, full-length, fused to the GAL4 DNA-binding domain (pFN11A-PSF) (human, UniProt P23246 1-707)
T1 construct: PTB-associated splicing factor (PSF), human, full-length cDNA (GenBank BC051192), 707 amino acids; CheckMate/Flexi Vector Mammalian Two-Hybrid System (Promega), vector pFN11A; also called Gal4-PSF; source: CV-1 cells, transiently transfected, mammalian two-hybrid fusion
T1 sequence (looked up): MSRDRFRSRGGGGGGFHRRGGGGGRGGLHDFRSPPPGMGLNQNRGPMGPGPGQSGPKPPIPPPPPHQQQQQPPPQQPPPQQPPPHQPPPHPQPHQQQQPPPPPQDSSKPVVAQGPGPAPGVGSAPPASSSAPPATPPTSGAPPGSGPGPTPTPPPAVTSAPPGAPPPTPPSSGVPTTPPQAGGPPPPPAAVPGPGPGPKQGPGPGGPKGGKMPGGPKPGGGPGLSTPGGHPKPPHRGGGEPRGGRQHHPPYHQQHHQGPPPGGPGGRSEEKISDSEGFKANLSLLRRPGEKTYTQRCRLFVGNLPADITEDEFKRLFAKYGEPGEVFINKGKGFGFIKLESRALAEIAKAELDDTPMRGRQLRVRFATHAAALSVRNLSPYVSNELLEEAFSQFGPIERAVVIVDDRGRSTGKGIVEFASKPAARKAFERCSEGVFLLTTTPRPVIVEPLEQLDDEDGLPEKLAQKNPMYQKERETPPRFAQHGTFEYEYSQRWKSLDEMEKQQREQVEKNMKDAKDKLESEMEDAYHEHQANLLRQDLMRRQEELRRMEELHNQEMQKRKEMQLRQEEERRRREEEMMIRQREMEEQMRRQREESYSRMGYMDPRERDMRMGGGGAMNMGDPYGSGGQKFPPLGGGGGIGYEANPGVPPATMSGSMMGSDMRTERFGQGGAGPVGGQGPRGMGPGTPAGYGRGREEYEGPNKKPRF
Test: two-hybrid; mammalian two-hybrid in CV-1 cells: GAL4 DNA-binding domain-PSF (pFN11A) and VP16-PPARγ1 (pFN10A), GAL4-UAS luciferase reporter; also with rosiglitazone 0.1–10 µM, which did not affect the interaction
Conditions: partners not purified

B1: PPARγ1, full-length, fused to the VP16 activation domain (pFN10A-PPARγ1) (natural protein, UniProt P37231-2 1-477, looked up)
chain: MTMVDTEMPFWPTNFGISSVDLSVMEDHSHSFDIKPFTTVDFSSISTPHYEDIPFTRTDPVVADYKYDLKLQEYQSAIKVEPASPPYYSEKTQLYNKPHEEPSNSLMAIECRVCGDKASGFHYGVHACEGCKGFFRRTIRLKLIYDRCDLNCRIHKKSRNKCQYCRFQKCLAVGMSHNAIRFGRMPQAEKEKLLAEISSDIDQLNPESADLRALAKHLYDSYIKSFPLTKAKARAILTGKTTDKSPFVIYDMNSLMMGEDKIKFKHITPLQEQSKEVAIRIFQGCQFRSVEAVQEITEYAKSIPGFVNLDLNDQVTLLKYGVHEIIYTMLASLMNKDGVLISEGQGFMTREFLKSLRKPFGDFMEPKFEFAVKFNALELDDSDLAIFIAVIILSGDRPGLLNVKPIEDIQDNLLQALELQLKLNHPESSQLFAKLLQKMTDLRQIVTEHVQLLQVIKKTETDMSLHPLLQEIYKDLY
notes: CheckMate/Flexi Vector Mammalian Two-Hybrid System (Promega), vector pFN10A; also called VP16-PPARγ; VP-16-PPARγ1; source: CV-1 cells, transiently transfected, mammalian two-hybrid fusion
B1 was tested, and the “fold induction of GAL4 promoter-driven luciferase over empty vectors” value was 3 fold.
